Laboratory results as given in patent US20230295638.

How the values were obtained:
[1] = molecular target: constitutive Corelet construct PPID::FUSn::GFP::FTH1, where PPID=PDZ (UniProt P02794)
[2] = molecular target: constitutive Corelet construct PPID::FUSn::GFP::FTH1, where PPID=PTB (UniProt P02794)

Substance	shikimate production [1]	shikimate production [2]
TAL1 C-terminally tagged with PDZ ligand	The case when all four enzymes are recruited through expression with PTB/PDZ tags (+) shows enhanced shikimate production compared to when certain enzymes are removed from the cluster through expression without fusion to PTB/PDZ tag (-).	
TKL1 C-terminally tagged with PTB ligand		The case when all four enzymes are recruited through expression with PTB/PDZ tags (+) shows enhanced shikimate production compared to when certain enzymes are removed from the cluster through expression without fusion to PTB/PDZ tag (-).
